Key:
Assay in all cases: cell_activity
[1] = target: Int-h (mutant lambda integrase) (Bacteriophage lambda) (UniProt P03700); details: HeLa 48 h
[2] = target: Int-h/218 (double mutant lambda integrase) (Bacteriophage lambda) (UniProt P03700); details: HeLa 48 h
[3] = target: T1, Int (wild-type lambda integrase) (Bacteriophage lambda) (UniProt P03700); details: attP x attP intermolecular, HeLa 48 h; attP x attB 0.81%
T1 sequence: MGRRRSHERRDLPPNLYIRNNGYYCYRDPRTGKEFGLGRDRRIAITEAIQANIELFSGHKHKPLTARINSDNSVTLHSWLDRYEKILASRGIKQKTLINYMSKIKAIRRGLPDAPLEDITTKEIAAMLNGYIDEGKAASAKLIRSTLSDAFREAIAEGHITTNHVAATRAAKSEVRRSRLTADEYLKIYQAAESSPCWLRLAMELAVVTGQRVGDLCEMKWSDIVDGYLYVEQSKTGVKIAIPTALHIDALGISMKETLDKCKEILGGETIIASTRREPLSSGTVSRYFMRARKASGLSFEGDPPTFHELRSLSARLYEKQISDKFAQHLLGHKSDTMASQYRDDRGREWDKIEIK

| Sequence | activity ([1]; attB x attB intermolecular) | activity ([2]; attB x attB intermolecular) | activity [3] | activity ([1]; attP x attP intermolecular, attP x attB 9.90%) | activity ([2]; attP x attP intermolecular, attP x attB 16.45%) |
| --- | --- | --- | --- | --- | --- |
| CTGCTTTTTTATACTAACTTG (double strand) [attB] | 1.15 % GFP+ cells | 4.01 % GFP+ cells | – | – | – |
| TCTGTTACAGGTCACTAATACCATCTAAGTAGTTGATTCATAGTGACTGCATATGTTGTGTTTTACAGTATTATGTAGTCTGTTTTTTATGCAAAATCTAATTTAATATATTGATATTTATATCATTTTACGTTTCTCGTTCAGCTTTTTTATACTAAGTTGGCATTATAAAAAAGCATTGCTTATCAATTTGTTGCAACGAACAGGTCACTATCAGTCAAAATAAAATCATTATTTGATTTC (double strand) [attP] | – | – | 1.24 % GFP+ cells | 8.07 % GFP+ cells | 17.6 % GFP+ cells |

— patent publication US20070148773
